# Measured values published in US20170119790A1, “Agents, Uses and Methods” (CYTOGUIDE A/S, priority 2009, published 2017).
# B1: MAC2-158: anti-human CD163 murine mAb, binds SRCR domain 1, IQ Products; VH SEQ ID NO: 1, VL SEQ ID NO: 2 (antibody, V domains shown)
# VH: DVQLQESGPGLVKPSQSLSLTCTVTGYSITSDYAWNWIRQFPGNKLEWMGYITYSGITNYNPSLKSQISITRDTSKNQFFLQLNSVTTEDTATYYCVSGTYYFDYWGQGTTLTVSS
# VL: SVVMTQTPKSLLISIGDRVTITCKASQSVSSDVAWFQQKPGQSPKPLIYYASNRYTGVPDRFTGSGYGTDFTFTISSVQAEDLAVYFCGQDYTSPRTFGGGTKLEIKRA
# modifications: Mac2-158 VH; Mac2-158 VL
# Assays:
# CD163 = CD163 (Homo sapiens, UniProt Q86VB7); assay: Competition of binding to Mac2-158 epitope (SPR on Mac2-158 saturated CD163 chip); details: 2 mM free calcium buffer, mAb 5 μg/ml
# Procedure: To evaluate if there is competition in the binding of a range of mAbs to CD163 we first saturated the CD163-chip with Mac2-158 by injecting 50 μL of 50 μg/ml Mac2-158 and subsequently injecting relevant mAbs in 5 μg/ml. The binding buffer was CaHBS 10 mM Hepes, 150 mM NaCl, 3.0 mM CaCl2, 1.0 mM EGTA, and 0.005% Tween 20, pH 7.4.
# [1] = target: T1, CD163 receptor on surface of human macrophages (Homo sapiens, UniProt Q86VB7); assay: Cellular binding and uptake of fluorescently labeled CD163 antibodies in monocyte-derived macrophages; format: cell-based
# T1 construct: Freshly drawn peripheral whole blood samples or PBMC; endogenous in cells; host or cells: human peripheral blood monocytes, blood dendritic cells, monocyte-derived macrophages (healthy donors, buffy coats)
# Procedure: Monocytes were isolated from PBMC by negative selection using magnetic beads from Dynal (Dynabeads® MyPure™ Monocyte Kit 2; Invitrogen A/S, Taastrup, Denmark) according to instructions provided by the manufacturer. Monocyte preparations were more than 95% (CD14^+) pure determined by flow cytometry. The isolated cells were washed twice with phosphate-buffered saline. Monocyte-derived macrophages (MDMs) were prepared by cell culture of monocytes (approximately 1×10^7 cells) for 4 days in 5% CO2 and 37° C. in RPMI 1640 media (RPMI 1640+25 mM HEPES+I-glutamine) (Invitrogen Corporation, Carlsbad, Calif., USA) with 20% FCS containing 100 ng/ml of M-CSF. MDMs were then detached from the flask by incubation with cell dissociation buffer (Invitrogen A/S, Taastrup, Denmark) for 30 minutes at 4 °C, then flushed, and scraped. The cells were then cultured for 24 hours in RPMI 1640 media (RPMI 1640+25 mM HEPES+I-glutamine) (Invitrogen Corporation, Carlsbad, Calif., USA) supplemented with 20% FCS containing 100 ng/ml of M-CSF at 37° C. in 95% air and 5% CO2 in Lab-Tek™ Chamber Slides (Thermo Fisher Scientific, Roskilde, Denmark). 200 nM dexamethasone (Merck KGaA, Darmstadt, Germany) was added during culture to increase CD163 expression. Stably transfected Chinese hamster ovary (CHO) cells expressing the full-length human CD163, as described above, were cultured in serum-free CHO medium (HyQ-CCM, HyClone, Logan, Utah) containing 300 μg/ml Hygromycin B, as previously described (2).
# MDMs or CHO cells were washed with 4° C. cold D-PBS, pH 7.4, containing 1% BSA in Lab-Tek™ Chamber Slides (Thermo Fisher Scientific, Roskilde, Denmark). The cells were then incubated with 10 μg/ml different clones of anti-CD163 for one hour at 4° C. and then washed three times with D-PBS, pH 7.4, with 1% BSA. […] Fluorescence was visualized using a Zeiss Axiovert 200M microscope (Carl Zeiss GmbH, Jena, Germany) with an ×100 oil-immersion objective. […] Alternatively, immunostained cells were analyzed by confocal immunofluorescence microscopy using a Zeiss LSM-510 confocal microscope (Carl Zeiss GmbH, Jena, Germany). […]
# T1 sequence (Q86VB7 42-1156): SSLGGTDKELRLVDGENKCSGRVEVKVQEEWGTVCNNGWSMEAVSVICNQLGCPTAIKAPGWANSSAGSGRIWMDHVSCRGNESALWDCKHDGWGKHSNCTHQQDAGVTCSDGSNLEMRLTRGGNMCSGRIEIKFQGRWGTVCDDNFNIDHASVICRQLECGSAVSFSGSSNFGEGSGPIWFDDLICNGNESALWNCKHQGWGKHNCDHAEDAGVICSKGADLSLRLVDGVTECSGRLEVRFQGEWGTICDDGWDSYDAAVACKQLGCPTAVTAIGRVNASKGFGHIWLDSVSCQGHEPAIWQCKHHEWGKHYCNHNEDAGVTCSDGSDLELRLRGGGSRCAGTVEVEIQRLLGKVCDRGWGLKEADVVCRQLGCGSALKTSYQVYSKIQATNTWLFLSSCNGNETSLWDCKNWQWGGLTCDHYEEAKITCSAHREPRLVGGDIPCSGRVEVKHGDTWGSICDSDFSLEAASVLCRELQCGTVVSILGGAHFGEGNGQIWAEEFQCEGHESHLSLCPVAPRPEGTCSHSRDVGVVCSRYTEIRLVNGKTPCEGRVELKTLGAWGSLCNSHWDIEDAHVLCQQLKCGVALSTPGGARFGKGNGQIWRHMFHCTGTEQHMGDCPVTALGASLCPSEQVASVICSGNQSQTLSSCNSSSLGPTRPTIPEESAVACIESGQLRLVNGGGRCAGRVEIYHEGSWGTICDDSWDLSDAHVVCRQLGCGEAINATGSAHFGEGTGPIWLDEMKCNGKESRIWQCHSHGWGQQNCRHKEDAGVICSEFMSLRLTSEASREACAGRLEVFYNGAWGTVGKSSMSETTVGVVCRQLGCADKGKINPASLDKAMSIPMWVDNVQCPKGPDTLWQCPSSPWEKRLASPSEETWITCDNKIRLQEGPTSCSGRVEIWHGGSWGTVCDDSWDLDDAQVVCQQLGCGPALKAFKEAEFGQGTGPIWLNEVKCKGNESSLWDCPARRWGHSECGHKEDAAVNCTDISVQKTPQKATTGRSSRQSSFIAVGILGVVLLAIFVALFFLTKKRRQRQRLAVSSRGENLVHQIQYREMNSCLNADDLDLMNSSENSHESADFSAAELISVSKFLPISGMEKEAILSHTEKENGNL
# Chain of CD163 (Q86VB7 42-1156): as above
molecule,measurement,setting,value
B1,binding to CD163-Fc saturated with Mac2-158,CD163,not able to bind
same,binding and uptake,"[1]; 0 or 30 minutes, FIG. 6",best binding and uptake
same,intensity of intracellular staining,[1]; after incubation for 30 min,most prominent
same,cell surface staining,"[1]; immunofluorescence, 0 min, macrophages stimulated with 200 nM dexamethasone",pronounced cell surface staining
